Assay results as given in patent US8663912B2, “Fluorogenic substrate for ADAMTS13” (Washington University, priority 2011, dated 2014).
* marks the point of attachment. X1 = CC1(C)C(/C=C/C2=C(Cl)C(=C/C=C3/N(CCCCCC(=O)*)c4ccc5cc(S(=O)(=O)O)ccc5c4C3(C)C)/CCC2)=[N+](CCCS(=O)(=O)[O-])c2ccc(N(CCCS(=O)(=O)O)CCCS(=O)(=O)O)cc21; X2 = CC(C)(C)c1cc(/C=C/C=C2\N(CCCS(=O)(=O)O)c3ccc(S(=O)(=O)O)cc3C2(C)CCCC(=O)CCN2C(=O)CC(*)C2=O)c2ccc(N(CCCS(=O)(=O)[O-])CCCS(=O)(=O)O)cc2[o+]1

Key:
[1] = Stability and pH dependence of fluorescence of FRETS-rVWF71; assay type: physicochemical
Procedure: In these experiments, DyLight 633 maleimide (Thermo Scientific, Waltham, Mass.) 1 mg/100 μL in dimethyl sulfoxide (DMSO) was added dropwise with stirring to peptide VWF71 (10 mg) in ≦2 mL of 100 mM sodium phosphate, pH 7.1, in the dark, and stirred overnight at room temperature. The product DyLight 633-rVWF71 was purified by HPLC on C18 using the TEAA/acetonitrile solvent system as described for the purification of VWF71. DyLight 633-rVWF71 was lyophilized and desalted on a small column of PD-10 in ≦2 mL of 100 mM sodium phosphate, pH 7.9. IRDye QC-1 N-hydroxysuccinimide ester 0.5 mg in 100 μL DMSO was added dropwise with stirring and the solution was stirred overnight at room temperature protected from light. The product FRETS-rVWF71 was purified by reverse phase HPLC, lyophilized, dissolved in ≦0.5 mL of deionized water and applied onto a column (7×230 mm) of Amberlite IR120 sodium form. FRETS-rVWF71 product was eluted with deionized water and lyophilized or concentrated by ultrafiltration to ≧250 μM. The concentration was verified by amino acid analysis (The Protein Chemistry Laboratory, Texas A&M University).

ADAMTS13 = target: T1, ADAMTS13 (Homo sapiens, UniProt Q76LX8); assay: ADAMTS13 inhibitor titer assay with FRETS-rVWF71 substrate; assay type: biochemical; set-up: from tissue; host or cells: human plasma or serum (pooled normal plasma, healthy donors, TTP patients); details: TTP patients with detectable inhibitor; printed 1.4-fold to >5-fold
T1 sequence (Q76LX8 75-1427): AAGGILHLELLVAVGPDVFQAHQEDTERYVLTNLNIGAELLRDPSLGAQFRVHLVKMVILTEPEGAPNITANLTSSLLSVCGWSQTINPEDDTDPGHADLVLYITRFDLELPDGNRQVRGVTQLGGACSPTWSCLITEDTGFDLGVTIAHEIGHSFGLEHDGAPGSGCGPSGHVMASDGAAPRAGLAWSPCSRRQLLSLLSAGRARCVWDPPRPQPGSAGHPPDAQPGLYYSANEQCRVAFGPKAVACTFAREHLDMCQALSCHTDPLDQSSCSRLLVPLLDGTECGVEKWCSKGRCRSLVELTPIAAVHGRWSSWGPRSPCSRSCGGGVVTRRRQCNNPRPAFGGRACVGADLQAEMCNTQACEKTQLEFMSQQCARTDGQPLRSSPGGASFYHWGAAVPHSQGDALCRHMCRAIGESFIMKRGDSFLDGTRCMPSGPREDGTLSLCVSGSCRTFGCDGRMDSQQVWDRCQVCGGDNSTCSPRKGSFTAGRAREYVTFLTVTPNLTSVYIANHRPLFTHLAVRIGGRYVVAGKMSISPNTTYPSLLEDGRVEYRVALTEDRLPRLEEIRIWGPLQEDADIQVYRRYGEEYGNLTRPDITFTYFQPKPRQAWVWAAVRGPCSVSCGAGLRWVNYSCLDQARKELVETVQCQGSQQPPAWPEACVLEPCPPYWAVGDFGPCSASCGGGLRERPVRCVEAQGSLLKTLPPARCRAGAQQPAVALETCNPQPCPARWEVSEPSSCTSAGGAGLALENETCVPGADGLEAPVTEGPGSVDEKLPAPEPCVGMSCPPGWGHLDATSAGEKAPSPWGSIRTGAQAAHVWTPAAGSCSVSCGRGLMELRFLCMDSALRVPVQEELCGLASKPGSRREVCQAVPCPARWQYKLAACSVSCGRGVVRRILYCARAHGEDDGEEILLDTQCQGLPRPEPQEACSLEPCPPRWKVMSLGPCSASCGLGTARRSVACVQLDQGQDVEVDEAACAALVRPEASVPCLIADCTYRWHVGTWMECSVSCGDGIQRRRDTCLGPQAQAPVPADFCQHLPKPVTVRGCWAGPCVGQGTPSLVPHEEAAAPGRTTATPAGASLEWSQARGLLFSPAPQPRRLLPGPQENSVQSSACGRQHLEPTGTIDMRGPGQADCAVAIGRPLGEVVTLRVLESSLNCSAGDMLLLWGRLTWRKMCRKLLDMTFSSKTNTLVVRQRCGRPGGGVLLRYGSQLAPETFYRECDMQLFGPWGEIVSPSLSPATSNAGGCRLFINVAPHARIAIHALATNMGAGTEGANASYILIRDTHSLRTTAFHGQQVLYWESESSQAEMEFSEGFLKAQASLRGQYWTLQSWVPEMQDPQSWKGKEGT
Procedure: Plasma samples with ADAMTS13 protease activity <10% were tested for the presence of an ADAMTS13 inhibitor. Plasma samples were serially diluted two-fold with assay buffer (50 mM HEPES, pH 7.4, 150 mM NaCl, 10 mM CaCl2, and 0.05% Tween-20) to yield 8 dilutions. In duplicate, PNP (50 μL) was mixed with an equal volume (50 μL) of undiluted test plasma and each serially diluted sample. Control conditions included PNP mixed with an equal volume of cleavage buffer. The microplate containing the samples was sealed with adhesive film (Sealplate, Excel Scientific, Victorville, Calif.) and incubated at 37° C. for 1 h. Reaction was initiated by addition of 100 μL of assay buffer containing 2 μM FRETS-rVWF71. Fluorescence emission was monitored and initial reaction rates were determined.
The inhibitor titer was determined by fitting the initial reaction rates to a four parameter logistic model or sigmoidal dose response equation by nonlinear regression (Prism): Rate(D)=[…]/(1+10^((log T−log D)*H)) […]
A fixed amount of ADAMTS13 in PNP (100 μL) was preincubated with serially diluted plasma samples and assayed for ADAMTS13 activity. Reaction rates were analyzed according to a model for competitive sigmoidal dose-response inhibition to obtain the dilution of plasma at which ADAMTS13 activity is decreased by 50%, and the inverse of the dilution is the inhibitor titer (FIG. 7C). […]

X1-GQAPNLVYMVTGC(X2)PASDEIRRLPGDIQVVPIGVGPNANVQELERIGWPNAPILIQDFETLPREAPDLVLQR [FRETS-rVWF71]
variation of fluorescence emission at 660 nm with pH ([1]; excitation 635 nm, uncleaved and fully cleaved substrate, between pH 5 and pH 10): < 7% | stability of final product ([1]; sodium salt): stable | stability on storage ([1]; working stocks at −20° C. thawed and refrozen repeatedly over several months): without any change in stability or chemical properties | inhibitor titers higher than with FRETS-VWF73 (ADAMTS13): ≥ 1.4 fold
